Tested on: peptide library, one residue held at a place counted from the Y acceptor
Assay: relative phosphorylation of the sub-library (ratio to the mean residue at this position); higher = residue favoured
Procedure, shortened: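 Within 384-well plates, purified recombinant kinases phosphorylated biotinylated Tyr-centred peptide library mixtures over 90 min using 50 μM ATP spiked with γ-32P-ATP; each mixture fixed one residue at one position from −5 to +5. Streptavidin membrane capture, rinsing, phosphorimaging and ImageQuant gave the intensities. These were normalized per position to the sum of the 18 randomized residues (16 for the Ser/Thr-free library) and multiplied by that number.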

Chain of LYN, construct: Full length, human (P07948 whole entry, looked up): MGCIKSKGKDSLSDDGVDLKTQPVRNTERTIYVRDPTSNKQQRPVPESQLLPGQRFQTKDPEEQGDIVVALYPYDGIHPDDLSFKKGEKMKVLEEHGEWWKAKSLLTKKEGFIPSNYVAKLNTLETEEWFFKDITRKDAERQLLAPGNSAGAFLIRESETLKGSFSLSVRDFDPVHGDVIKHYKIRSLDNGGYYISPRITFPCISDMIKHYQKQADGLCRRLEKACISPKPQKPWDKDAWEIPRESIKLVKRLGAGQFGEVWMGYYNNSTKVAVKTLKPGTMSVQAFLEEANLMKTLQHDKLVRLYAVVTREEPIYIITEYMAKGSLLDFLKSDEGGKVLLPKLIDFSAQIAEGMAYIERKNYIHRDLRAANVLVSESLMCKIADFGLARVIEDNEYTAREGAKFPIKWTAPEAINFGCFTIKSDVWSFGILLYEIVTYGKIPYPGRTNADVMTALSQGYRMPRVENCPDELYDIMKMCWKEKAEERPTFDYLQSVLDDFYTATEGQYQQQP

LYN, construct: Full length, human (from UniProt P07948)
relative phosphorylation
Details	at +1	at +2	at +3	at +4	at +5	at -1	at -2	at -3	at -4	at -5
A fixed	1.69	0.956	0.493	0.796	0.932	0.577	1.02	0.769	1.09	1.05
D fixed	0.936	0.672	0.237	0.582	0.535	0.838	1.44	1.77	1.3	1.27
E fixed	1.64	1.58	0.258	0.623	0.514	1.1	1.63	2.4	1.61	1.09
F fixed	0.757	1.12	3.21	1.07	1.48	1.27	0.808	1.09	1.44	1.06
G fixed	2.35	0.704	0.661	0.923	1	0.445	1.2	0.939	1.14	1.04
H fixed	0.807	0.613	0.68	1.22	0.988	0.505	0.773	0.703	0.641	0.871
I fixed	1.15	1.13	2.63	0.899	0.956	3.44	1.05	0.802	0.922	1.02
K fixed	0.22	0.682	0.443	1.25	1.21	0.21	0.489	0.427	0.582	0.805
L fixed	0.822	0.804	1.47	0.911	1.04	2.08	0.993	0.835	1.24	1.03
M fixed	1.04	0.935	0.896	1.09	0.848	0.982	0.635	0.992	0.992	1.07
N fixed	0.628	0.943	0.347	0.803	0.66	0.381	1.14	1.09	0.82	1.09
P fixed	0.226	0.911	0.638	1.06	1.28	0.791	1.14	1.24	0.991	1.03
Q fixed	1.1	0.963	0.352	1.14	0.778	0.463	1.03	0.917	1.19	1.09
R fixed	0.31	0.92	0.974	1.38	1.32	0.2	0.524	0.45	0.6	0.762
S fixed	1.05	1.31	0.507	0.974	1.05	0.413	1.16	0.905	0.721	0.833
T fixed	0.795	1.33	0.59	0.851	1.01	1.22	0.964	0.823	0.669	0.765
V fixed	1.3	1.2	1.4	0.824	0.893	2.27	1.02	0.696	0.803	0.885
W fixed	1.18	1.22	2.21	1.61	1.5	0.811	0.977	1.15	1.25	1.23
pThr fixed	0.927	1.68	0.243	0.385	0.435	2.22	1.34	1.24	1.14	1.11
pTyr fixed	1.36	1.98	0.397	0.897	0.487	1.35	1.2	1.49	1.45	1.21
